The values below come from publication PMC11098746 (2024).

In experiment [1] the target is FGFR4 ectodomain (Homo sapiens, UniProt P22455). The experiment in a line: AVEXIS normalised luminescence.
Experiment [2] deals with Circumsporozoite protein (CSP) (Plasmodium falciparum (isolate 3D7), UniProt Q7K740). The experiment in a line: AVEXIS screen signal:noise (double-corrected).

B1: 42 (protein)
chain: QLRFASLGDWGKDTKGQILNAKYFKQFIKNERVTFIVSPGSNFIDGVKGLNDPAWKNLYEDVYSEEKGDMYMPFFTVLGTRDWTGNYNAQLLKGQGIYIEKNGETSIEKDADATNYPKWIMPNYWYHYFTHFTVSSGPSIVKTGHKDLAAAFIFIDTWVLSSNFPYKKIHEKAWNDLKSQLSVAKKIADFIIVVGDQPIYSSGYSRGSSYLAYYLLPLLKDAEVDLYISGHDNNMEVIEDNDMAHITCGSGSMSQGKSGMKNSKSLFFSSDIGFCVHELSNNGIVTKFVSSKKGEVIYTHKLNIKKKKTLDKVNALQHFAALPNVELTDVPSSGP
modifications: bait human Fc-tagged dimer
For B1, the binding score in experiment [1] stood at 1.51.

B2: ADP148 (protein)
chain: MASWIGAVILPLLGLLLSLPAGADVKARSCGEVRQAYGAKGFSLADIPYQEIAGEHLRICPQEYTCCTTEMEDKLSQQSKLEFENLVEETSHFVRTTFVSRHKKFDEFFRELLENAEKSLNDMFVRTYGMLYMQNSEVFQDLFTELKRYYTGGNVNLEEMLNDFWARLLERMFQLINPQYHFSEDYLECVSKYTDQLKPFGDVPRKLKIQVTRAFIAARTFVQGLTVGREVANRVSKVSPTPGCIRALMKMLYCPYCRGLPTVRPCNNYCLNVMKGCLANQADLDTEWNLFIDAMLLVAERLEGPFNIESVMDPIDVKISEAIMNMQENSMQVSAKVFQGCGQPKPAPALRSARSAPENFNTRFRPYNPEERPTTAAGTSLDRLVTDIKEKLKLSKKVWSALPYTICKDESVTAGTSNEEECWNGHSKARYLPEIMNDGLTNQINNPEVDVDITRPDTFIRQQIMALRVMTNKLKNAYNGNDVNFQDTSDESSGSGSGSGCMDDVCPTEFEFVTTEAPAVDPDRREVDSS
modifications: bait human Fc-tagged dimer
In experiment [2], B2 showed a binding score of 0.913.

B3: 58 (protein)
chain: IQLHSVNYAPLNYIEIGDTLSNKVGELWHSHLNSFIDIVSTKVVNKLEDDLSNGNNLEKFMILLEDDADIFDASAYEGKNLALIQTEFIRKLKDKFKNSKFGQKLKKLGSKAKEKLLSLYQKHKGKLRHFFSILLKSLVIPIAVQFIRKNLNKWKQRTLEATQKLDEQSKNIAQPIINRLYNSFEDKIEEYSQENKINVEDELNALGQLDKDKQDIQKLEEQEKALLQ
modifications: bait human Fc-tagged dimer
Take B3: the binding score in experiment [1] is 0.979.

B4: ADP362 (protein)
chain: MARAALWLWLCALALSLQPALPQIVATNLPPEDQDGSGDDSDNFSGSGAGALQDITLSQQTPSTWKDTQLLTAIPTSPEPTGLEATAASTSTLPAGEGPKEGEAVVLPEVEPGLTAREQEATPRPRETTQLPTTHLASTTTATTAQEPATSHPHRDMQPGHHETSTPAGPSQADLHTPHTEDGGPSATERAAEDGASSQLPAAEGSGEQDFTFETSGENTAVVAVEPDRRNQSPVDQGATGASQGLLDRKEVLG
modifications: bait human Fc-tagged dimer
In experiment [2], B4 showed a binding score of 0.594.

B5: ADP382 (protein)
chain: TYDDGICKSSDCIKSAARLIQNMDATTEPCTDFFKYACGGWLKRNVIPETSSRYGNFDILRDELEVVLKDVLQEPKTEDIVAVQKAKALYRSCINESAIDSRGGEPLLKLLPDIYGWPVATENWEQKYGASWTAEKAIAQLNSKYGKKVLINLFVGTDDKNSVNHVIHIDQPRLGLPSRDYYECTGIYKEACTAYVDFMISVARLIRQEERLPIDENQLALEMNKVMELEKEIANATAKPEDRNDPMLLYNKMTLAQIQNNFSLEINGKPFSWLNFTNEIMSTVNISITNEEDVVVYAPEYLTKLKPILTKYSARDLQNLMSWRFIMDLVSSLSRTYKESRNAFRKALYGTTSETATWRRCANYVNGNMENAVGRLYVEAAFAGESKHVVEDLIAQIREVFIQTLDDLTWMDAETKKRAEEKALAIKERIGYPDDIVSNDNKLNNEYLELNYKEDEYFENIIQNLKFSQSKQLKKLREKVDKDEWISGAAVVNAFYSSGRNQIVFPAGILQPPFFSAQQSNSLNYGGIGMVIGHEITHGFDDNGRNFNKDGDLVDWWTQQSASNFKEQSQCMVYQYGNFSWDLAGGQHLNGINTLGENIADNGGLGQAYRAYQNYIKKNGEEKLLPGLDLNHKQLFFLNFAQVWCGTYRPEYAVNSIKTDVHSPGNFRIIGTLQNSAEFSEAFHCRKNSYMNPEKKCRVW
modifications: bait human Fc-tagged dimer
Turning to B5, the binding score in experiment [2] was found to be 0.577.

B6: ADP378 (protein)
chain: PAPGRPPTHNAHNWRLGQAPANWYNDTYPLSPPQRTPAGIRYRIAVIADLDTESRAQEENTWFSYLKKGYLTLSDSGDKVAVEWDKDHGVLESHLAEKGRGMELSDLIVFNGKLYSVDDRTGVVYQIEGSKAVPWVILSDGDGTVEKGFKAEWLAVKDERLYVGGLGKEWTTTTGDVVNENPEWVKVVGYKGSVDHENWVSNYNALRAAAGIQPPGYLIHESACWSDTLQRWFFLPRRASQERYSEKDDERKGANLLLSASPDFGDIAVSHVGAVVPTHGFSSFKFIPNTDDQIIVALKSEEDSGRVASYIMAFTLDGRFLLPETKIGSVKYEGIEFI
modifications: bait human Fc-tagged dimer
For B6, the binding score in experiment [2] stood at 1.3.

B7: ADP313 (protein)
chain: MAHLHHSCLCFRSWLPAMLAVLLSLAPSASSDISASRPNILLLMADDLGIGDIGCYGNNTMRTPNIDRLAEDGVKLTQHISAASLCTPSRAAFLTGRYPVRSGMVSSIGYRVLQWTGASGGLPTNETTFAKILKEKGYATGLIGKWHLGLNCESASDHCHHPLHHGFDHFYGMPFSLMGDCARWELSEKRVNLEQKLNFLFQVLALVALTLVAGKLTHLIPVSWMPVIWSALSAVLLLASSYFVGALIVHADCFLMRNHTITEQPMCFQRTTPLILQEVASFLKRNKHGPFLLFVSFLHVHIPLITMENFLGKSLHGLYGDNVEEMDWMVGRILDTLDVEGLSNSTLIYFTSDHGGSLENQLGNTQYGGWNGIYKGGKGMGGWEGGIRVPGIFRWPGVLPAGRVIGEPTSLMDVFPTVVRLAGGEVPQDRVIDGQDLLPLLLGTAQHSDHEFLMHYCERFLHAARWHQRDRGTMWKVHFVTPVFQPEGAGACYGRKVCPCFGEKVVHHDPPLLFDLSRDPSETHILTPASEPVFYQVMERVQQAVWEHQRTLSPVPLQLDRLGNIWRPWLQPCCGPFPLCWCLREDDPQ
modifications: bait human Fc-tagged dimer
Turning to B7, the binding score in experiment [2] is 0.959.

B8: ADP152 (protein)
chain: MAPSSPRPALPALLVLLGALFPGPGNAQTSVSPSKVILPRGGSVLVTCSTSCDQPKLLGIETPLPKKELLLPGNNRKVYELSNVQEDSQPMCYSNCPDGQSTAKTFLTVYWTPERVELAPLPSWQPVGKNLTLRCQVEGGAPRANLTVVLLRGEKELKREPAVGEPAEVTTTVLVRRDHHGANFSCRTELDLRPQGLELFENTSAPYQLQTFVLPATPPQLVSPRVLEVDTQGTVVCSLDGLFPVSEAQVHLALGDQRLNPTVTYGNDSFSAKASVSVTAEDEGTQRLTCAVILGNQSQETLQTVTIYSFPAPNVILTKPEVSEGTEVTVKCEAHPRAKVTLNGVPAQPLGPRAQLLLKATPEDNGRSFSCSATLEVAGQLIHKNQTRELRVLYGPRLDERDCPGNWTWPENSQQTPMCQAWGNPLPELKCLKDGTFPLPIGESVTVTRDLEGTYLCRARSTQGEVTRKVTVNVLSP
modifications: bait human Fc-tagged dimer
For B8, the binding score in experiment [2] was 1.23.

B9: ADP309 (protein)
chain: MEAPAAGLFLLLLLGTWAPAPGSASSEAPPLINEDVKRTVDLSSHLAKVTAEVVLAHLGGGSTSRATSFLLALEPELEARLAHLGVQVKGEDEEENNLEVRETKIKGKSGRFFTVKLPVALDPGAKISVIVETVYTHVLHPYPTQITQSEKQFVVFEGNHYFYSPYPTKTQTMRVKLASRNVESYTKLGNPTRSEDLLDYGPFRDVPAYSQDTFKVHYENNSPFLTITSMTRVIEVSHWGNIAVEENVDLKHTGAVLKGPFSRYDYQRQPDSGISSIRSFKTILPAAAQDVYYRDEIGNVSTSHLLILDDSVEMEIRPRFPLFGGWKTHYIVGYNLPSYEYLYNLGDQYALKMRFVDHVFDEQVIDSLTVKIILPEGAKNIEIDSPYEISRAPDELHYTYLDTFGRPVIVAYKKNLVEQHIQDIVVHYTFNKVLMLQE
modifications: bait human Fc-tagged dimer
Regarding B9, the binding score in experiment [2] is 1.06.
